What was measured:
[1] = biological target: H3–H4 (H3 refolded with labeled H4 E63C) (UniProt P61830); assay: FRET or BRET
[2] = biological target: H2A–H2B (H2A T118C labeled with Alexa-488 refolded with H2B) (UniProt P04911); assay: FRET or BRET
Chain of UniProt P04911 (P04911 2-132, chain 1 of 2): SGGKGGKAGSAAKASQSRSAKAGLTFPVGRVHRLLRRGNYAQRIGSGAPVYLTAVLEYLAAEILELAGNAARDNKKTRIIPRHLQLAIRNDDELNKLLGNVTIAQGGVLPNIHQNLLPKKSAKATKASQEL
Chain of UniProt P04911 (P02294 2-131 T119C, chain 2 of 2, further chain): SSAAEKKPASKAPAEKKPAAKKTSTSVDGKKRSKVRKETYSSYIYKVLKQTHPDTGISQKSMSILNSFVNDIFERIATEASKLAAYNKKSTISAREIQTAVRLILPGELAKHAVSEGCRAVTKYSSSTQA

Kd [1]: 196 nM
Kd [2]: 305 nM
Substance: Scm3, full length, labeled with Atto-647N at cysteine 41 (from UniProt Q12334 1-223) (natural protein)

Reference: PMC4027189
